{"source": "patent US20220143024A1", "about": "“METHODS OF USING IMIPRIDONES” (Board of Regents, The University of Texas System, priority 2019, published 2022)", "assay_in_all_cases": "BioID-MS", "key": {"ABCB7 (human)": {"target": "ABCB7 (human) (UniProt O75027)"}, "ACAD9 (human)": {"target": "ACAD9 (human) (UniProt Q9H845)"}, "ACN9 (human)": {"target": "ACN9 (human) (UniProt Q9NRP4)"}, "ACO2 (human)": {"target": "ACO2 (human) (UniProt Q99798)"}, "ADCK3 (human)": {"target": "ADCK3 (human) (UniProt Q8NI60)"}, "AFG3L2 (human)": {"target": "AFG3L2 (human) (UniProt Q9Y4W6)", "sequence (Q9Y4W6 67-797 limits assumed)": "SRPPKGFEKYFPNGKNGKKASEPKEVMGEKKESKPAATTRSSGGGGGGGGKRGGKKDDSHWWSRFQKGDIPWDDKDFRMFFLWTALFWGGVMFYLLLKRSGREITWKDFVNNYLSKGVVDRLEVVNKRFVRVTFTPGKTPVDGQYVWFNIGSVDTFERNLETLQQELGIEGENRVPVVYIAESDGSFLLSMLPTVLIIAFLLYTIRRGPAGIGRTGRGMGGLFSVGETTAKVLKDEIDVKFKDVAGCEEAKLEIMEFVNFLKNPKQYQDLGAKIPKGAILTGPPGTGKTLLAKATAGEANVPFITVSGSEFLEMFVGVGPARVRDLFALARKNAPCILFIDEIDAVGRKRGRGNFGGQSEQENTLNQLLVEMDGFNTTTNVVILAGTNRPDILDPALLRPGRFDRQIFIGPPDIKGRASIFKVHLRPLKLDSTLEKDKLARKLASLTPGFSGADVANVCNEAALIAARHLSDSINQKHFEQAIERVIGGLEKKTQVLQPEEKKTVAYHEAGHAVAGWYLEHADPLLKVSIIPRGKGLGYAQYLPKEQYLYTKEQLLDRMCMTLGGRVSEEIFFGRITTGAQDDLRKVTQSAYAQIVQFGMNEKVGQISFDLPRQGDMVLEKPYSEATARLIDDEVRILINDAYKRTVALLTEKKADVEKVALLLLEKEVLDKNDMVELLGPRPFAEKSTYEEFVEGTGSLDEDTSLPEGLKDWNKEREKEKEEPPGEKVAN"}, "ALDH4A1 (human)": {"target": "ALDH4A1 (human) (UniProt P30038)"}, "ARG2 (human)": {"target": "ARG2 (human) (UniProt P78540)"}, "BCS1L (human)": {"target": "BCS1L (human) (UniProt Q9Y276)"}, "C12orf10 (human)": {"target": "C12orf10 (human) (UniProt Q9HB07)"}, "CHCHD3 (human)": {"target": "CHCHD3 (human) (UniProt Q9NX63)", "sequence (Q9NX63 2-227 limits assumed)": "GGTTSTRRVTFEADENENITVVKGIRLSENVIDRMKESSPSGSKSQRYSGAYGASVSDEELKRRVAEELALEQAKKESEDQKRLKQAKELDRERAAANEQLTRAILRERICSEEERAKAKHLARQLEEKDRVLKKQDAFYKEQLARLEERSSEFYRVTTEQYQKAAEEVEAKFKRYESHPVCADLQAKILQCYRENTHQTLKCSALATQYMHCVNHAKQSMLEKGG"}, "DCAKD (human)": {"target": "DCAKD (human) (UniProt Q8WVC6)"}, "ECHS1 (human)": {"target": "ECHS1 (human) (UniProt P30084)"}, "EFHA1 (human)": {"target": "EFHA1 (human) (UniProt Q8IYU8)", "sequence (Q8IYU8 23-434 limits assumed)": "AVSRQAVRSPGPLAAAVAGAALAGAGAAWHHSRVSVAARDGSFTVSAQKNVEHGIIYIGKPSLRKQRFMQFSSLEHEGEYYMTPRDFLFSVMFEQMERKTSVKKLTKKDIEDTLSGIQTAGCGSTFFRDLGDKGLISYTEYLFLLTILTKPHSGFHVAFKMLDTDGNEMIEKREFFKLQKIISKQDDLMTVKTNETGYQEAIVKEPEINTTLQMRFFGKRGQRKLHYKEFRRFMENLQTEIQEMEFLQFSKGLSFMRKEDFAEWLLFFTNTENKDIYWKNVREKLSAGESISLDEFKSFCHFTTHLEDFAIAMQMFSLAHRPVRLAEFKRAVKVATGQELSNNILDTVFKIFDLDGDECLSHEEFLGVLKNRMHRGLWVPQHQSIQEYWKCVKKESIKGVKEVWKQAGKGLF"}, "ETFB (human)": {"target": "ETFB (human) (UniProt P38117)", "sequence (P38117 2-255 limits assumed)": "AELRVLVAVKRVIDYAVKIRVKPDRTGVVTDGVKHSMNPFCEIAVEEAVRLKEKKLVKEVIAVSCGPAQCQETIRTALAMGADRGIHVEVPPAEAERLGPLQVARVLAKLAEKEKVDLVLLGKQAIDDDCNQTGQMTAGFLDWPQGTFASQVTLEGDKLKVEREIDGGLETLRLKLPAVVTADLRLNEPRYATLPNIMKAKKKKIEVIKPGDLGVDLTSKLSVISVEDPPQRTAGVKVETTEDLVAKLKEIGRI"}, "FASTKD2 (human)": {"target": "FASTKD2 (human) (UniProt Q9NYY8)"}, "GATB (human)": {"target": "GATB (human) (UniProt O75879)"}, "GLRX5 (human)": {"target": "GLRX5 (human) (UniProt Q86SX6)"}, "GLUD1 (human)": {"target": "GLUD1 (human) (UniProt P00367)"}, "GUF1 (human)": {"target": "GUF1 (human) (UniProt Q8N442)"}, "HSD17B10 (human)": {"target": "HSD17B10 (human) (UniProt Q99714)"}, "HSPA1L (human)": {"target": "HSPA1L (human) (UniProt P34931)", "sequence (P34931 whole entry)": "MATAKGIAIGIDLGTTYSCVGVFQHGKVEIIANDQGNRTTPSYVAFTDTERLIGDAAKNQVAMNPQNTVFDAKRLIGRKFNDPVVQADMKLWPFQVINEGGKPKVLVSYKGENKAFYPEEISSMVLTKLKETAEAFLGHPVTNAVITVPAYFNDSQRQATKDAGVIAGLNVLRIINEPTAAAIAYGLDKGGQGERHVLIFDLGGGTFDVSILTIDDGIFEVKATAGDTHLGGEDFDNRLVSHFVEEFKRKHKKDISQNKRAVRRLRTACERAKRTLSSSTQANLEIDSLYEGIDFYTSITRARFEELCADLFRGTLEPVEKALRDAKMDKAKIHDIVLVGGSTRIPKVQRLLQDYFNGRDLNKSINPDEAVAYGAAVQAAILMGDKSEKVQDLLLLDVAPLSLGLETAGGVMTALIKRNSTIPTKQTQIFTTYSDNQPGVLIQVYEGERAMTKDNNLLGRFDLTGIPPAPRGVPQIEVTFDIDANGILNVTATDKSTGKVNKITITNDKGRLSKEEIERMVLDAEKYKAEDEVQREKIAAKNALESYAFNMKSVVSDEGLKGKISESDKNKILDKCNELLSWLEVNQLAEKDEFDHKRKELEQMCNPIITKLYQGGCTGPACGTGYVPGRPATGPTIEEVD"}, "IARS2 (human)": {"target": "IARS2 (human) (UniProt Q9NSE4)", "sequence (Q9NSE4 49-1012 limits assumed)": "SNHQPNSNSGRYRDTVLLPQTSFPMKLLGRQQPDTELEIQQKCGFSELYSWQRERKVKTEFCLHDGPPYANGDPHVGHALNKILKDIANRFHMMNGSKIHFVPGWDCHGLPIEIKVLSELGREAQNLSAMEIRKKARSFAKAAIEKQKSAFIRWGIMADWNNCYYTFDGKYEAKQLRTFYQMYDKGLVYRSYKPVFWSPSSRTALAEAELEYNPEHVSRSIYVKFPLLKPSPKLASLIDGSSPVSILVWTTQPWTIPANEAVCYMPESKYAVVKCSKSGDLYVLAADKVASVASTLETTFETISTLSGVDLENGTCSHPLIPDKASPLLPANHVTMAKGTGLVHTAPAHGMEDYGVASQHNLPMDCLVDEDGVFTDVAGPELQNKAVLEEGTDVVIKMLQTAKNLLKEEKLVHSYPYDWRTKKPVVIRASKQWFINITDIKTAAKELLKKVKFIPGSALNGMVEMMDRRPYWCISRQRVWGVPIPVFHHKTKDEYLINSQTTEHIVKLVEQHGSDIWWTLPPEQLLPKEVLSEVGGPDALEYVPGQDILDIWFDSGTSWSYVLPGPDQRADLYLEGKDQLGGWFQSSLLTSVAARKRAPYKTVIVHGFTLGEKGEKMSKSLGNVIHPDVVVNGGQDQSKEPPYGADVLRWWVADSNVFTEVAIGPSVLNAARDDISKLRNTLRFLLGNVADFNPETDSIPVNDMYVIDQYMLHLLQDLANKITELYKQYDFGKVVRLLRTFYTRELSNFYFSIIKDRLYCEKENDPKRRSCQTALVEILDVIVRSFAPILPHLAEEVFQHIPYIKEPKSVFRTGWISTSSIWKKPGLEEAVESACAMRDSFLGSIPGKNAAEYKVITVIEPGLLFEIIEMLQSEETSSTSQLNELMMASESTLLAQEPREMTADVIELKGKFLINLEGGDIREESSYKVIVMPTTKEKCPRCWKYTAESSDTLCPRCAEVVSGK"}, "K1AA0564 (human)": {"target": "K1AA0564 (human) (UniProt A3KMH1)"}, "LARS2 (human)": {"target": "LARS2 (human) (UniProt Q15031)"}, "LETM1 (human)": {"target": "LETM1 (human) (UniProt O95202)"}, "METTL17 (human)": {"target": "METTL17 (human) (UniProt Q9H7H0)"}, "MGME1 (human)": {"target": "MGME1 (human) (UniProt Q9BQP7)", "sequence (Q9BQP7 whole entry)": "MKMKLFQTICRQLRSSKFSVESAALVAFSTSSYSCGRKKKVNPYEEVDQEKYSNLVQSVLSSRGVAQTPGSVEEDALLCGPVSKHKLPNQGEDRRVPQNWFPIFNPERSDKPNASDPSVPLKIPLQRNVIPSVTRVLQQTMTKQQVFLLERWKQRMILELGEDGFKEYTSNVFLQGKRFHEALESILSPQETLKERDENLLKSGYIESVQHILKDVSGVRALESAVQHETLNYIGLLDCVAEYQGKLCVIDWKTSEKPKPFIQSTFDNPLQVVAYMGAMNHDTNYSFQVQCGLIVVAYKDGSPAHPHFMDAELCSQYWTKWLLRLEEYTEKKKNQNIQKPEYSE"}, "MMAB (human)": {"target": "MMAB (human) (UniProt Q96EY8)", "sequence (Q96EY8 33-250 limits assumed)": "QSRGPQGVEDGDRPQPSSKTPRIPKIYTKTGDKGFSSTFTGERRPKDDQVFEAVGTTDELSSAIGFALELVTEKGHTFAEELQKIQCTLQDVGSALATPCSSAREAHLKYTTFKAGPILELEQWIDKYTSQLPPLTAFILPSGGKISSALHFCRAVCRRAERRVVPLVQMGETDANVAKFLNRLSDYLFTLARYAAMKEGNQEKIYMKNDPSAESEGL"}, "MRPL12 (human)": {"target": "MRPL12 (human) (UniProt P52815)"}, "MRPL19 (human)": {"target": "MRPL19 (human) (UniProt P49406)"}, "MRPL44 (human)": {"target": "MRPL44 (human) (UniProt Q9H9J2)"}, "MRPL47 (human)": {"target": "MRPL47 (human) (UniProt Q9HD33)"}, "MRPS24 (human)": {"target": "MRPS24 (human) (UniProt Q96EL2)"}, "MRPS25 (human)": {"target": "MRPS25 (human) (UniProt P82663)"}, "MRPS36 (human)": {"target": "MRPS36 (human) (UniProt P82909)"}, "MTHFD1L (human)": {"target": "MTHFD1L (human) (UniProt Q6UB35)"}, "MTHFD2 (human)": {"target": "MTHFD2 (human) (UniProt P13995)"}, "MTIF2 (human)": {"target": "MTIF2 (human) (UniProt P46199)"}, "MTRF1 (human)": {"target": "MTRF1 (human) (UniProt O75570)", "sequence (O75570 62-445 limits assumed)": "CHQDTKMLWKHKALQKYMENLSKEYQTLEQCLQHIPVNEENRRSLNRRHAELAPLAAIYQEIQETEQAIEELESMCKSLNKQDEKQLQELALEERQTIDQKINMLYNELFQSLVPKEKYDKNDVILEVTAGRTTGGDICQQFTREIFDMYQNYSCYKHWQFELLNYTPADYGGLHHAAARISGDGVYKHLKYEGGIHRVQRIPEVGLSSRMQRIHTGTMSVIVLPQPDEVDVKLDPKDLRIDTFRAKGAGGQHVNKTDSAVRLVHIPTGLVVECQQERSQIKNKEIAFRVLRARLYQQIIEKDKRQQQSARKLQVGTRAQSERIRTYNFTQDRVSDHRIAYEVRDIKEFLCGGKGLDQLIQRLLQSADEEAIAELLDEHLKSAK"}, "NADKD1 (human)": {"target": "NADKD1 (human) (UniProt Q4G0N4)"}, "NDUFA12 (human)": {"target": "NDUFA12 (human) (UniProt Q9UI09)"}, "NME4 (human)": {"target": "NME4 (human) (UniProt O00746)"}, "NUBPL (human)": {"target": "NUBPL (human) (UniProt Q8TB37)"}, "NUDT1 (human)": {"target": "NUDT1 (human) (UniProt P36639)"}, "OXCT1 (human)": {"target": "OXCT1 (human) (UniProt P55809)"}, "PDK3 (human)": {"target": "PDK3 (human) (UniProt Q15120)", "sequence (Q15120 whole entry)": "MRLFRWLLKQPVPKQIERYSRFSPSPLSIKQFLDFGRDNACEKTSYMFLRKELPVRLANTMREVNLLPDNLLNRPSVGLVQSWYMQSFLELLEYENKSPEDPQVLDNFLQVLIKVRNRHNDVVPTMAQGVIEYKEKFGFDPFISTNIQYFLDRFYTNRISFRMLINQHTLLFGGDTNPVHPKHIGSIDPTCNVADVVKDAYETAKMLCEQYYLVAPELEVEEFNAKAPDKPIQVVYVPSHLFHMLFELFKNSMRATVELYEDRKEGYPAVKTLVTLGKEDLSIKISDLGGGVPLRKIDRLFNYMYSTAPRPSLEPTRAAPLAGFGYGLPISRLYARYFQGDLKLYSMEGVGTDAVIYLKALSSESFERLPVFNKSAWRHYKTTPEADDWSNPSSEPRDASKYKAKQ"}, "PET112 (human)": {"target": "PET112 (human) (UniProt O75879)"}, "PITRM1 (human)": {"target": "PITRM1 (human) (UniProt Q5JRX3)"}, "PPA2 (human)": {"target": "PPA2 (human) (UniProt Q9H2U2)"}, "RG9MTD1 (human)": {"target": "RG9MTD1 (human) (UniProt Q7L0Y3)"}, "RNMTL1 (human)": {"target": "RNMTL1 (human) (UniProt Q9HC36)"}, "RPS15A (human)": {"target": "RPS15A (human) (UniProt P62244)"}, "SUCLA2 (human)": {"target": "SUCLA2 (human) (UniProt Q9P2R7)"}, "TARS2 (human)": {"target": "TARS2 (human) (UniProt Q9BW92)"}, "TBRG4 (human)": {"target": "TBRG4 (human) (UniProt Q969Z0)"}, "VWA8 (human)": {"target": "VWA8 (human) (UniProt A3KMH1)"}, "ZADH2 (human)": {"target": "ZADH2 (human) (UniProt Q8N4Q0)", "sequence (Q8N4Q0 whole entry)": "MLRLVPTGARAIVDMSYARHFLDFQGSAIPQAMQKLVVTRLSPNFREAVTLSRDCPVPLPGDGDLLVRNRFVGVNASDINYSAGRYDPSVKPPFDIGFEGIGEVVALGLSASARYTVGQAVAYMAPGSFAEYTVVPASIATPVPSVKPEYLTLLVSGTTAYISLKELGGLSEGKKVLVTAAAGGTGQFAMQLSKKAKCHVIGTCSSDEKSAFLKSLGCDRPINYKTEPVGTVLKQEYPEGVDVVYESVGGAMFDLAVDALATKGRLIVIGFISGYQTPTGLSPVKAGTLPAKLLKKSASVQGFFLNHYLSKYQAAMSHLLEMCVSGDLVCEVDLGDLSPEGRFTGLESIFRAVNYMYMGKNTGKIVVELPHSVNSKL"}}, "data": [{"substance": "FlagBirA-ClpP (Y118A) (from UniProt P06709 1-321; Q16740 57-277) (enzyme)", "values": [{"measurement": "Log2 Fold change (vs control)", "setting": "ABCB7 (human)", "value": -0.65, "unit": "log2"}, {"measurement": "Log2 Fold change (vs control)", "setting": "ACAD9 (human)", "value": 1.18, "unit": "log2"}, {"measurement": "Log2 Fold change (vs control)", "setting": "ACN9 (human)", "value": -2.14, "unit": "log2"}, {"measurement": "Log2 Fold change (vs control)", "setting": "ACO2 (human)", "value": -0.29, "unit": "log2"}, {"measurement": "Log2 Fold change (vs control)", "setting": "ADCK3 (human)", "value": -0.3, "unit": "log2"}, {"measurement": "Log2 Fold change (vs control)", "setting": "AFG3L2 (human)", "value": 0.43, "unit": "log2"}, {"measurement": "Log2 Fold change (vs control)", "setting": "ALDH4A1 (human)", "value": -0.81, "unit": "log2"}, {"measurement": "Log2 Fold change (vs control)", "setting": "ARG2 (human)", "value": 0.78, "unit": "log2"}, {"measurement": "Log2 Fold change (vs control)", "setting": "BCS1L (human)", "value": 0.47, "unit": "log2"}, {"measurement": "Log2 Fold change (vs control)", "setting": "C12orf10 (human)", "value": -3.75, "unit": "log2"}, {"measurement": "Log2 Fold change (vs control)", "setting": "CHCHD3 (human)", "value": -2.46, "unit": "log2"}, {"measurement": "Log2 Fold change (vs control)", "setting": "DCAKD (human)", "value": -3.75, "unit": "log2"}, {"measurement": "Log2 Fold change (vs control)", "setting": "ECHS1 (human)", "value": -0.33, "unit": "log2"}, {"measurement": "Log2 Fold change (vs control)", "setting": "EFHA1 (human)", "value": -4.17, "unit": "log2"}, {"measurement": "Log2 Fold change (vs control)", "setting": "ETFB (human)", "value": 0.4, "unit": "log2"}, {"measurement": "Log2 Fold change (vs control)", "setting": "FASTKD2 (human)", "value": 0.71, "unit": "log2"}, {"measurement": "Log2 Fold change (vs control)", "setting": "GATB (human)", "value": -3.1, "unit": "log2"}, {"measurement": "Log2 Fold change (vs control)", "setting": "GLRX5 (human)", "value": -0.26, "unit": "log2"}, {"measurement": "Log2 Fold change (vs control)", "setting": "GLUD1 (human)", "value": -0.39, "unit": "log2"}, {"measurement": "Log2 Fold change (vs control)", "setting": "GUF1 (human)", "value": 0.38, "unit": "log2"}, {"measurement": "Log2 Fold change (vs control)", "setting": "HSD17B10 (human)", "value": 0.72, "unit": "log2"}, {"measurement": "Log2 Fold change (vs control)", "setting": "HSPA1L (human)", "value": -0.71, "unit": "log2"}, {"measurement": "Log2 Fold change (vs control)", "setting": "IARS2 (human)", "value": 0.43, "unit": "log2"}, {"measurement": "Log2 Fold change (vs control)", "setting": "K1AA0564 (human)", "value": 0.29, "unit": "log2"}, {"measurement": "Log2 Fold change (vs control)", "setting": "LARS2 (human)", "value": 0.1, "unit": "log2"}, {"measurement": "Log2 Fold change (vs control)", "setting": "LETM1 (human)", "value": 1.06, "unit": "log2"}, {"measurement": "Log2 Fold change (vs control)", "setting": "METTL17 (human)", "value": -3.58, "unit": "log2"}, {"measurement": "Log2 Fold change (vs control)", "setting": "MGME1 (human)", "value": 0.44, "unit": "log2"}, {"measurement": "Log2 Fold change (vs control)", "setting": "MMAB (human)", "value": 0.11, "unit": "log2"}, {"measurement": "Log2 Fold change (vs control)", "setting": "MRPL12 (human)", "value": 0.21, "unit": "log2"}, {"measurement": "Log2 Fold change (vs control)", "setting": "MRPL19 (human)", "value": -0.97, "unit": "log2"}, {"measurement": "Log2 Fold change (vs control)", "setting": "MRPL44 (human)", "value": 1.13, "unit": "log2"}, {"measurement": "Log2 Fold change (vs control)", "setting": "MRPL47 (human)", "value": -1.94, "unit": "log2"}, {"measurement": "Log2 Fold change (vs control)", "setting": "MRPS24 (human)", "value": 1.12, "unit": "log2"}, {"measurement": "Log2 Fold change (vs control)", "setting": "MRPS25 (human)", "value": 0.62, "unit": "log2"}, {"measurement": "Log2 Fold change (vs control)", "setting": "MRPS36 (human)", "value": 0.11, "unit": "log2"}, {"measurement": "Log2 Fold change (vs control)", "setting": "MTHFD1L (human)", "value": 0.25, "unit": "log2"}, {"measurement": "Log2 Fold change (vs control)", "setting": "MTHFD2 (human)", "value": 0.22, "unit": "log2"}, {"measurement": "Log2 Fold change (vs control)", "setting": "MTIF2 (human)", "value": 0.3, "unit": "log2"}, {"measurement": "Log2 Fold change (vs control)", "setting": "MTRF1 (human)", "value": -1.44, "unit": "log2"}, {"measurement": "Log2 Fold change (vs control)", "setting": "NADKD1 (human)", "value": -1.04, "unit": "log2"}, {"measurement": "Log2 Fold change (vs control)", "setting": "NDUFA12 (human)", "value": -1.02, "unit": "log2"}, {"measurement": "Log2 Fold change (vs control)", "setting": "NME4 (human)", "value": -0.42, "unit": "log2"}, {"measurement": "Log2 Fold change (vs control)", "setting": "NUBPL (human)", "value": -2.58, "unit": "log2"}, {"measurement": "Log2 Fold change (vs control)", "setting": "NUDT1 (human)", "value": -3.17, "unit": "log2"}, {"measurement": "Log2 Fold change (vs control)", "setting": "OXCT1 (human)", "value": -0.95, "unit": "log2"}, {"measurement": "Log2 Fold change (vs control)", "setting": "PDK3 (human)", "value": 0.6, "unit": "log2"}, {"measurement": "Log2 Fold change (vs control)", "setting": "PET112 (human)", "value": -0.3, "unit": "log2"}, {"measurement": "Log2 Fold change (vs control)", "setting": "PITRM1 (human)", "value": -0.16, "unit": "log2"}, {"measurement": "Log2 Fold change (vs control)", "setting": "PPA2 (human)", "value": 0.02, "unit": "log2"}, {"measurement": "Log2 Fold change (vs control)", "setting": "RG9MTD1 (human)", "value": 0.47, "unit": "log2"}, {"measurement": "Log2 Fold change (vs control)", "setting": "RNMTL1 (human)", "value": -0.2, "unit": "log2"}, {"measurement": "Log2 Fold change (vs control)", "setting": "RPS15A (human)", "value": -0.45, "unit": "log2"}, {"measurement": "Log2 Fold change (vs control)", "setting": "SUCLA2 (human)", "value": -0.06, "unit": "log2"}, {"measurement": "Log2 Fold change (vs control)", "setting": "TARS2 (human)", "value": -0.25, "unit": "log2"}, {"measurement": "Log2 Fold change (vs control)", "setting": "TBRG4 (human)", "value": 0.28, "unit": "log2"}, {"measurement": "Log2 Fold change (vs control)", "setting": "VWA8 (human)", "value": 1.02, "unit": "log2"}, {"measurement": "Log2 Fold change (vs control)", "setting": "ZADH2 (human)", "value": -1.46, "unit": "log2"}]}]}
